The target of experiment [1] is T1, cell surface CD22 on Ramos (CD22+) cells (human, UniProt P20273 20-847).
T1 construct: whole, on cells; also called CD22 on WSU-DLCL2, MHH-PREB-1 and Raji cells
T1 sequence (looked up): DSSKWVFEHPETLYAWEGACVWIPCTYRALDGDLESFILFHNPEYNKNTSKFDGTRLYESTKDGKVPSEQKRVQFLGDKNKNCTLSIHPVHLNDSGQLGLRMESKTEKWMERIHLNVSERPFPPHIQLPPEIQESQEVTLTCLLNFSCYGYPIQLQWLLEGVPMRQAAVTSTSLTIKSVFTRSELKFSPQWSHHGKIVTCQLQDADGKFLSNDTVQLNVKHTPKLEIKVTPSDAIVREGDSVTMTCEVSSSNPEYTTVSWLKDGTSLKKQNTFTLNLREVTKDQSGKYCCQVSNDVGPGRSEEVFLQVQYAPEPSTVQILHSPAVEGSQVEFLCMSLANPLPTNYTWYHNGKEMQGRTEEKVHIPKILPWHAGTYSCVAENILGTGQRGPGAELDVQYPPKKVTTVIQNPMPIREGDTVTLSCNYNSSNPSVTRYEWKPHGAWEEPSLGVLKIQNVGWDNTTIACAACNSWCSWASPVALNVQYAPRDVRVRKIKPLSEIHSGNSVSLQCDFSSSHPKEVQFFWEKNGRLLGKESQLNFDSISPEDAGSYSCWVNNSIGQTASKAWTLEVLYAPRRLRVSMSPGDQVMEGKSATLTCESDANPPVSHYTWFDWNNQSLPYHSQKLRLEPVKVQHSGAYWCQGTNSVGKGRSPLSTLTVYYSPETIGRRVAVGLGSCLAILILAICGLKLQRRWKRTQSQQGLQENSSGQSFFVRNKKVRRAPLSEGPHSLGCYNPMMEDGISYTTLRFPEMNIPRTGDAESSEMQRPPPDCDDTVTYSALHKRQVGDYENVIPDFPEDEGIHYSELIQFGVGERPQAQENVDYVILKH
Put plainly: flow cytometry, antibody titration on Ramos (CD22+) cells, AF488 anti-human IgG. As to the method:
100,000 cells per well were resuspended in 900 μL FC buffer in a 96 well deep well plate. Pinatuzumab, Inotuzumab, and pH engineered antibody variants were serially diluted at a 1:3 dilution. 100 μL of diluted antibody was added to each well with final concentration ranging from ˜100 nM to 0.024 pM and incubated for 2 hours at 4° C. Post incubation, the cells were spun at 2000 rpm for 2 min and supernatant was discarded. Cells were washed twice with 500 μL of ice-cold FC buffer and resuspended with 100 μL of FC buffer. The cells were then transferred from the deep well plate to 96 well round bottom plate, spun at 2000 rpm for 2 min and incubated with 100 μL of 10 μg/mL Alexa Fluor 488 conjugated goat anti-human IgG secondary antibody (ThermoFisher Scientific, A11013) for 30 min. Post incubation, cells were washed with FC buffer and resuspended in 100 μL of FC buffer to read on a BD Accuri C6 flow cytometer. Binding affinity was measured as a dissociation constant KD by GraphPad Prism assuming Michaelis-Menten binding kinetics. MYT1331, MYT4405 and MYT4424 show high affinity binding to cell surface CD22 on Ramos cells in the pM-nM range confirming that variants created through pH engineering can retain functionally appropriate affinities as compared to their corresponding starting ABPCs (e.g., inotuzumab or pinatuzumab).

Experiment [2] addresses T2, CD22 Protein (His Tag), Sino Biological Cat. No. 11958-H08H (UniProt P20273 20-687).
T2 construct: soluble analyte, 50 nM in BLI; also called Sino Biological antigen
T2 sequence (looked up): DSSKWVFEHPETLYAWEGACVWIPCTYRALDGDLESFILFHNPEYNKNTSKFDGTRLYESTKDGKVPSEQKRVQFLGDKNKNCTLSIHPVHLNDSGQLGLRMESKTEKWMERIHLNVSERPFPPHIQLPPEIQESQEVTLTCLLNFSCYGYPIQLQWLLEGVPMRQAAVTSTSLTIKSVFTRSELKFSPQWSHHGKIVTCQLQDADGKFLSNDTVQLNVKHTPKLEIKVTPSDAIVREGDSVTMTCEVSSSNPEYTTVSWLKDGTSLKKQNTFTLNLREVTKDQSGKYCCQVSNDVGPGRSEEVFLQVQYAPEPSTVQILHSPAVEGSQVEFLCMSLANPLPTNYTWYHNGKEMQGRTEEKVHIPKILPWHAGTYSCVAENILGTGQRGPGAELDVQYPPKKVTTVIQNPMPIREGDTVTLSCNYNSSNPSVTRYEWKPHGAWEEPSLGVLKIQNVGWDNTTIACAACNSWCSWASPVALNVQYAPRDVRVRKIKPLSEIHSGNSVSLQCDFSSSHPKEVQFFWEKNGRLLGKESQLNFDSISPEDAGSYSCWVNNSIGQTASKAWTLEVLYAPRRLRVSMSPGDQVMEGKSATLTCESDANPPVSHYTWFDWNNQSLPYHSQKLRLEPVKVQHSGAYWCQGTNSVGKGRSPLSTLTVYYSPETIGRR
Put plainly: BLI, IgG on anti-human Fc sensor. Background: Biolayer interferometry detects binding as a change in optical thickness at a sensor tip.

The target of experiment [3] is T3, CD22 (Acro Biosystems, Cat #CD2-H52H8) (UniProt P20273 20-687).
T3 construct: soluble analyte, 50 nM in BLI; also called Acro Biosystems antigen
T3 sequence (looked up): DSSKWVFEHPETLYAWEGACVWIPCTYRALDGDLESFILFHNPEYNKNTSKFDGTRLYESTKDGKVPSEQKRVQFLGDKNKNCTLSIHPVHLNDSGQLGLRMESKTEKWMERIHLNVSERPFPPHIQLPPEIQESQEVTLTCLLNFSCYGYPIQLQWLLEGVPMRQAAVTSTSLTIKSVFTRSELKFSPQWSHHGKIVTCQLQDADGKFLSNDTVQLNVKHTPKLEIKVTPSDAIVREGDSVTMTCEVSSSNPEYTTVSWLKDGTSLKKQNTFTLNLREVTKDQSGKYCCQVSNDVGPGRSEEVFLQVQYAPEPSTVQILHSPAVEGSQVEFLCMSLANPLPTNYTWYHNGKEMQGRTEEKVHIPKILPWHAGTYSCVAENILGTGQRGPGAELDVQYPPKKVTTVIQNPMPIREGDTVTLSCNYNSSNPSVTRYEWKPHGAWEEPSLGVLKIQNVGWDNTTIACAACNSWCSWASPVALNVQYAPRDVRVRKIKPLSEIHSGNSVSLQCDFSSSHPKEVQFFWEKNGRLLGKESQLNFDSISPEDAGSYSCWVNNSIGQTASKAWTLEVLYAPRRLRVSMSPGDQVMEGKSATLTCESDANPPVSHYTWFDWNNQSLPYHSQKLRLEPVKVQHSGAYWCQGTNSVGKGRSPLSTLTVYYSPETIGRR
Put plainly: BLI, IgG on anti-human Fc sensor, 50 nM CD22.

The target of experiment [4] is T2, CD22 Protein (His Tag), Sino Biological …. Put plainly: BLI, IgG on anti-human Fc sensor, 50 nM CD22.

These results are taken from US20220288219A1 (MYTHIC THERAPEUTICS, published 2022).

B1: pinatuzumab (antibody, V domains shown)
VH: EVQLVESGGGLVQPGGSLRLSCAASGYEFSRSWMNWVRQAPGKGLEWVGRIYPGDGDTNYSGKFKGRFTISADTSKNTAYLQMNSLRAEDTAVYYCARDGSSWDWYFDVWGQGTLVTVSS
VL: DIQMTQSPSSLSASVGDRVTITCRSSQSIVHSVGNTFLEWYQQKPGKAPKLLIYKVSNRFSGVPSRFSGSGSGTDFTLTISSLQPEDFATYYCFQGSQFPYTFGQGTKVEIK
notes: IgG from Expi293; also called MYT1293; PINATUZUMAB starting ABPC
For B1, the midpoint of inhibition in experiment [1], the IC50, lay at 0.362 nM.

B2: MYT1331 (antibody, V domains shown)
VH: EVQLVESGGGLVQPGGSLRLSCAASGYEFSRSWMNWVRQAPGKGLEWVGRIYPGDGDTNYSGKFKGRFTISADTSKNTAYLQMNSLRAEDTAVYYCARDGSSWDWYHDVWGQGTLVTVSS
VL: DIQMTQSPSSLSASVGDRVTITCRSSQSIVHSVGNTFLEWYQQKPGKAPKLLIYKVSNRFSGVPSRFSGSGSGTDFTLTISSLQPEDFATYYCFQGSQFPYTFGQGTKVEIK
notes: pinatuzumab VH F107H; tie by order
For B2, the IC50 – broadly, the point on the concentration scale where inhibition reaches its midpoint – in experiment [1] amounted to 0.395 nM. The IC50 values of the last two molecules are within 1.5-fold of each other.

B3: MYT4723 (antibody, V domains shown)
VH: QVQLQQWGAGLLKPSETLSLTCAVYGRSFSSYYWSWIRQPPGKGLEWIGDIQHSGSTNYNPSLKSRVTISVDTSKNQFSLKLSSVTAADTAVYYCAGTFYDILHGYYPLGYWGPGTLVTVSS
VL: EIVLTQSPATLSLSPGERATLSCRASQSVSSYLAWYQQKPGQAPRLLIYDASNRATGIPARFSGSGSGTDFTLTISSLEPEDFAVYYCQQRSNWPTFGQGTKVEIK
notes: 19A3 VH T104H; tie by order
B3: the binding result in experiment [2] is listed as “no binding (tested: 50 nM)”.

B4: MYT4405 (antibody, V domains shown)
VH: EVQLVQSGAEVKKPGASVKVSCKASGYRFTHYWIHWVRQAPGQGLEWIGGINPGNNYATYRRKFQGRVTMTADTSTSTVYMELSSLRSEDTAVYYCTREGYGHYGAWFAYWGQGTLVTVSS
VL: DVQVTQSPSSLSASVGDRVTITCRSSQSLANSYGNTFLSWYLHKPGKAPQLLIYGISNRFSGVPDRFSGSGSGTDFTLTISSLQPEDFATYYCLQGTHQPYTFGQGTKVEIK
notes: inotuzumab VH N31H+N103H; tie by order
In turn, B4 displayed an IC50 in experiment [1] of 0.24 nM.

B5: MYT0520 (antibody, V domains shown)
VH: EVQLVQSGAEVKKPGASVKVSCKASGHRFTNYWIHWVRQAPGQGLEWIGGINPGNNYATYRRKFQGRVTMTADTSTSTVYMELSSLRSEDTAVYYCTREGYGNYGAWFAYWGQGTLVTVSS
VL: DVQVTQSPSSLSASVGDRVTITCRSSQSLANSYGNTFLSWYLHKPGKAPQLLIYGISNRFSGVPDRFSGSGSGTDFTLTISSLQPEDFATYYCLQGTHQPYTFGQGTKVEIK
notes: inotuzumab VH Y27H; tie by order
With B5, the binding result in experiment [3] and in experiment [4] was “binds” throughout.

B6: MYT0550 (antibody, V domains shown)
VH: EVQLVQSGAEVKKPGASVKVSCKASGYRFTNYWIHWVRQAPGQGLEWIGGINPGNNYATYRRKFQGRVTMTADTSTSTVYMELSSLRSEDTAVYYCTREGYGHYGAWFAYWGQGTLVTVSS
VL: DVQVTQSPSSLSASVGDRVTITCRSSQSLANSYGNTFLSWYLHKPGKAPQLLIYGISNRFSGVPDRFSGSGSGTDFTLTISSLQPEDFATYYCLQGTHQPYTFGQGTKVEIK
notes: inotuzumab VH N103H; tie by order
Take B6: the binding result in experiment [3] and in experiment [4] was “binds” in each case.

B7: MYT0544 (antibody, V domains shown)
VH: EVQLVQSGAEVKKPGASVKVSCKASGYRFTNYWIHWVRQAPGQGLEWIGGINPGNNYATYRRKFQGRVTMTADTSTSTVYMELSSLRSEDTAVYYCHREGYGNYGAWFAYWGQGTLVTVSS
VL: DVQVTQSPSSLSASVGDRVTITCRSSQSLANSYGNTFLSWYLHKPGKAPQLLIYGISNRFSGVPDRFSGSGSGTDFTLTISSLQPEDFATYYCLQGTHQPYTFGQGTKVEIK
notes: inotuzumab VH T97H; tie by order
As for B7, the binding result in experiment [3] and in experiment [4] was “binds” throughout.

B8: MYT0536 (antibody, V domains shown)
VH: EVQLVQSGAEVKKPGASVKVSCKASGYRFTNYWIHWVRQAPGQGLEWIGGINPGNNHATYRRKFQGRVTMTADTSTSTVYMELSSLRSEDTAVYYCTREGYGNYGAWFAYWGQGTLVTVSS
VL: DVQVTQSPSSLSASVGDRVTITCRSSQSLANSYGNTFLSWYLHKPGKAPQLLIYGISNRFSGVPDRFSGSGSGTDFTLTISSLQPEDFATYYCLQGTHQPYTFGQGTKVEIK
notes: inotuzumab VH Y57H; tie by order
For the molecule B8, the binding result in experiment [3] and in experiment [4] was “binds” throughout.

B9: MYT4424 (antibody, V domains shown)
VH: EVQLVQSGAEVKKPGASVKVSCKASGYRFTHYWIHWVRQAPGQGLEWIGGINPGNNYAHYRRKFQGRVTMTADTSTSTVYMELSSLRSEDTAVYYCTREGYGHYGAWFAYWGQGTLVTVSS
VL: DVQVTQSPSSLSASVGDRVTITCRSSQSLANSYGNTFLSWYLHKPGKAPQLLIYGISNRFSGVPDRFSGSGSGTDFTLTISSLQPEDFATYYCLQGTHQPYTFGQGTKVEIK
notes: inotuzumab VH N31H+T59H+N103H; tie by order
For the molecule B9, the IC50 in experiment [1] was determined as 0.115 nM.

B10: MYT0526 (antibody, V domains shown)
VH: EVQLVQSGAEVKKPGASVKVSCKASGYRFTNYHIHWVRQAPGQGLEWIGGINPGNNYATYRRKFQGRVTMTADTSTSTVYMELSSLRSEDTAVYYCTREGYGNYGAWFAYWGQGTLVTVSS
VL: DVQVTQSPSSLSASVGDRVTITCRSSQSLANSYGNTFLSWYLHKPGKAPQLLIYGISNRFSGVPDRFSGSGSGTDFTLTISSLQPEDFATYYCLQGTHQPYTFGQGTKVEIK
notes: inotuzumab VH W33H; tie by order
Turning to B10, the binding result in experiment [3] and in experiment [4] was “binds” each time.

B11: inotuzumab (antibody, V domains shown)
VH: EVQLVQSGAEVKKPGASVKVSCKASGYRFTNYWIHWVRQAPGQGLEWIGGINPGNNYATYRRKFQGRVTMTADTSTSTVYMELSSLRSEDTAVYYCTREGYGNYGAWFAYWGQGTLVTVSS
VL: DVQVTQSPSSLSASVGDRVTITCRSSQSLANSYGNTFLSWYLHKPGKAPQLLIYGISNRFSGVPDRFSGSGSGTDFTLTISSLQPEDFATYYCLQGTHQPYTFGQGTKVEIK
notes: IgG from Expi293, captured by anti-human Fc; entries headed heavy/light chain hold only the variable domains; also called MYT0518; INOTUZUMAB starting ABPC
On to B11, for which 0.075 nM corresponded to half-maximal inhibition in experiment [1] (IC50).
